Test results published in patent US20250074994A1 (Molecular Partners, published 2025).

Target: T1, biotinylated recombinant human CD70 (extracellular domain, Fc tag) (human, UniProt P32970 52-193, chemically biotinylated using 5-fold excess of Biotin)
T1 construct: Bought from ACROBiosystems; also called bio.hCD70; Bio.CD70; not shown: C-terminal Fc Tag of the bought protein (ACROBiosystems)
T1 sequence: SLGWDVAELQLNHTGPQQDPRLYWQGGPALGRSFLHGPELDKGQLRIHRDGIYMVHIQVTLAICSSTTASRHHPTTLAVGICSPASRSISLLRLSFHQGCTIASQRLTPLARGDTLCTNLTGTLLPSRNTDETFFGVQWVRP
Assay: crude cell extract HTRF with 2 nM biotinylated hCD70
Source text: Selected clones bind specially to human CD70 as shown by crude extract HTRF Individual selected ankyrin repeat proteins specifically binding to hCD70 in solution were identified by a Homogeneous Time Resolved Fluorescence (HTRF) assay using crude extracts of ankyrin repeat protein-expressing Escherichia coli cells using standard protocols. Ankyrin repeat protein clones selected by ribosome display were cloned into derivatives of the pQE30 (Qiagen) expression vector (pMPDV25), transformed into E. coli XL1-Blue (Stratagene), plated on LB-agar (containing 1% glucose and 50 μg/ml ampicillin) and then incubated overnight at 37° C. […]
The extract of each lysed clone was applied as a 1:2000 dilution (final concentration) in PBSTB (PBS supplemented with 0.1% Tween 20® and 0.2% (w/v) BSA, pH 7.4) together with 2 nM (final concentration) biotinylated hCD70, 1:400 (final concentration) of anti-strep-Tb HTRF antibody—FRET donor conjugate (Cisbio) and 1:400 (final concentration) of anti-6His-D2 antibody FRET acceptor conjugate (Cisbio) to a well of 384 well plate and incubated for 60 minutes at RT. The HTRF was read-out on a Tecan M1000 using a 340 nm excitation wavelength and a 665±10 nm emission filter.

- binding result: binds
B1: DARPin® protein #4 (designed binder)
chain: MRGSHHHHHHGSDLGFKLLQAALRGQDDEVRILLAAGADVNAKDQLGTTPLHLAAHYGHLEIVEVLLKAGADVNAKDVWGDTPLHLAAQHGHLEIVEVLLKAGADVNAQDRAGYTPADLAAQEGHEDIAEVLQKAA
